Data: article PMC11054257

Columns and labels:
Assay in all cases: SDS-PAGE and Western blot of whole cells (oligomer bands that withstand SDS); 1 OD600 of induced cells in SDS sample buffer, 4~12% SDS-PAGE, PVDF, anti-Flag tag antibody; cells treated with proteinase K or not; positions of monomeric, dimeric and trimeric forms called putative
[1] = target: SadA^877 fused with N-terminal Flag×3-mScarlet (from pSadBA^877-FM) (Salmonella typhimurium)
[2] = target: SadA^1292 fused with N-terminal Flag×3-mScarlet (from pSadBA^1292-FM) (Salmonella typhimurium)
[3] = target: SadA^877 fused with Flag×3 and the UreB epitopes UreB158–172aa and UreB349–363aa (from pSadBA^877-FU2) (Salmonella typhimurium | Helicobacter pylori SS1) (UniProt P69996)
[4] = target: SadA^1292 fused with Flag×3 and the UreB epitopes UreB158–172aa and UreB349–363aa (from pSadBA^1292-FU2) (Salmonella typhimurium | Helicobacter pylori SS1) (UniProt P69996)
[5] = target: SadA^644 fused with Flag×3 and the UreB epitopes UreB158–172aa and UreB349–363aa (from pSadBA^644-FU2) (Salmonella typhimurium | Helicobacter pylori SS1) (UniProt P69996)
[6] = target: SadA^1292 fused with N-terminal Flag×3-UreBm-mScarlet (from pSadBA^1292-FUM) (Salmonella typhimurium | Helicobacter pylori SS1) (UniProt P69996)
[7] = target: SadA^1171 fused with Flag×3 and the UreB epitopes UreB158–172aa and UreB349–363aa (from pSadBA^1171-FU2) (Salmonella typhimurium | Helicobacter pylori SS1) (UniProt P69996)

Question: “SadA^877 fused with N-terminal Flag×3-mScarlet (from pSadBA^877-FM)” was tested. Which stoichiometry N [1] did it give?
Answer: Its stoichiometry N is 3.

Question: “SadA^1292 fused with N-terminal Flag×3-mScarlet (from pSadBA^1292-FM)” was tested. Which stoichiometry N [2] did it give?
Answer: The stoichiometry N was 3.

Question: “SadA^877 fused with Flag×3 and the UreB epitopes UreB158–172aa and UreB349–363aa (from pSadBA^877-FU2) (from UniProt P69996)” was tested. Which stoichiometry N [3] did it give?
Answer: Its stoichiometry N is 3.

Question: “SadA^1292 fused with Flag×3 and the UreB epitopes UreB158–172aa and UreB349–363aa (from pSadBA^1292-FU2) (from UniProt P69996)” was tested. Which stoichiometry N [4] did it give?
Answer: Its stoichiometry N is 3.

Question: For “SadA^644 fused with Flag×3 and the UreB epitopes UreB158–172aa and UreB349–363aa (from pSadBA^644-FU2) (from UniProt P69996)”, which stoichiometry N [5] is on record?
Answer: Its stoichiometry N is 3.

Question: With “SadA^1292 fused with N-terminal Flag×3-UreBm-mScarlet (from pSadBA^1292-FUM) (from UniProt P69996 111-377)” as the substance, how does the stoichiometry N [6] read?
Answer: The stoichiometry N was 3.

Question: With “SadA^1171 fused with Flag×3 and the UreB epitopes UreB158–172aa and UreB349–363aa (from pSadBA^1171-FU2) (from UniProt P69996)” as the substance, how does the stoichiometry N [7] read?
Answer: The stoichiometry N was 3.
